Paper PMC7414021, “Dodecin as carrier protein for immunizations and bioengineering applications” (Scientific Reports, 2020)

Legend:
[1] = molecular target: mtDod-mmACP (Mycobacterium tuberculosis | Mus musculus); assay: SEC
[2] = molecular target: mtDod-mmACP (Mycobacterium tuberculosis | Mus musculus); assay: SDS-PAGE (dodecamer stable in SDS)
mtDod(WT) = molecular target: T1, mtDod(WT) (Mycobacterium tuberculosis, UniProt I6XY36)
T1 construct: gene Rv1498A

[3] = molecular target: the molecule itself; assay: SDS-PAGE (dodecamer stable in SDS)

Work on mtDod-mmACP yielded a stoichiometry N [1] of 12 and a stoichiometry N [2] of 12.

`Cc1cc2nc3c(=O)[nH]c(=O)nc-3n(C[C@H](O)[C@H](O)[C@H](O)COP(=O)(O)O)c2cc1C` [FMN] was tested, and the “thermocyclic fluorescence assay (quenching of FMN fluorescence on binding to the)” value (mtDod(WT)) was “fluorescence quenching that is observed when flavins bind to dodecin”.

B1: Mycobacterium tuberculosis dodecin wild type (natural protein)
chain: MSNHTYRVIEIVGTSPDGVDAAIQGGLARAAQTMRALDWFEVQSIRGHLVDGAVAHFQVTMKVGFRLEDS
notes: also called mtDod(WT); mtDod; copies: 12
For B1, the “stoichiometry N” value [3] was 12.
